{"source": "patent US20120204273A1", "about": "“COMPOSITIONS RELATING TO A PHOSPHOPROTEIN AND METHODS OF USE” (SANFORD-BURNHAM MEDICAL RESEARCH INSTITUTE, priority 2010, published 2012)", "molecules": {"B1": {"name": "HA-CDP138-WT: full-length human KIAA0528 (CDP138) tagged with 3HA epitope at the N-terminus, pCMV5 vector (protein)", "chain": "MPGKLKVKIVAGRHLPVMDRASDLTDAFVEVKFGNTTFKTDVYLKSLNPQWNSEWFKFEVDDEDLQDEPLQITVLDHDTYSANDAIGKVYIDIDPLLYSEAATVISGWFPIYDTIHGIRGEINVVVKVDLFNDLNRFRQSSCGVKFFCTTSIPKCYRAVIIHGFVEELVVNEDPEYQWIDRIRTPRASNEARQRLISLMSGELQRKIGLKVLEMRGNAVVGYLQCFDLEGESGLVVRAIGTACTLDKLSSPAAFLPACNSPSKEMKEIPFNEDPNPNTHSSGPSTPLKNQTYSFSPSKSYSRQSSSSDTDLSLTPKTGMGSGSAGKEGGPFKALLRQQTQSALEQREFPFFTLTAFPPGFLVHVGGVVSARSVKLLDRIHNPDEPETRDAWWAEIRQEIKSHAKALGCHAVVGYSESTSICEEVCILSASGTAAVLNPRFLQDGTVEGCLEQRLEENLPTRCGFCHIPYDELNMPFPAHLTYCYNCRKQKVPDVLFTTIDLPTDATVIGKGCLIQARLCRLKKKAQAEANATAISNLLPFMEYEVHTQLMNKLKLKGMNALFGLRIQITVGENMLMGLASATGVYLAALPTPGGIQIAGKTPNDGSYEQHISHMQKKINDTIAKNKELYEINPPEISEEIIGSPIPEPRQRSRLLRSQSESSDEVTELDLSHGKKDAFVLEIDDTDAMEDVHSLLTDVPPPSGFYSCNTEIMPGINNWTSEIQMFTSVRVIRLSSLNLTNQALNKNFNDLCENLLKSLYFKLRSMIPCCLCHVNFTVSLPEDELIQVTVTAVAITFDKNQALQTTKTPVEKSLQRASTDNEELLQFPLELCSDSLPSHPFPPAKAMTVEKASPVGDGNFRNRSAPPCANSTVGVVKMTPLSFIPGAKITKYLGIINMFFIRETTSLREEGGVSGFLHAFIAEVFAMVRAHVAALGGNAVVSYIMKQCVFMENPNKNQAQCLINVSGDAVVFVRESDLEVVSSQQPTTNCQSSCTEGEVTT"}, "B2": {"name": "CDP138-5DA: dominant negative mutant CDP138-5DA vector transfected into PC12 cells (protein, UniProt Q86YS7 1-1000, looked up, variant D19A D26A D76A D78A D84A)", "C2 domain-containing protein 5": "B1 chain with D19A, D26A, D76A, D78A, D84A"}, "B3": {"name": "CDP138-WT: wild-type CDP138 vector transfected into PC12 cells (protein, UniProt Q86YS7 1-1000, looked up)", "C2 domain-containing protein 5": "B1 chain"}}, "key": {"3T3-L1 adipocytes": {"test_system": "3T3-L1 adipocytes", "assay": "myc-GLUT4-GFP translocation to the cell surface", "format": "cell-based, mouse", "conditions": "insulin 100 nM, 30 min", "description": "FIG. 2, panels A-C show knockdown of CDP138 in 3T3-L1 adipocytes inhibits insulin-stimulated glucose transport (A) and myc-GLUT4-GFP translocation (B), but not endogenous GLUT4 movement to the periphery detected in TIRF zone (C). (A): Differentiated adipocytes at day 5 were transfected with siRNAs against mouse 5730419I09Rik or the scrambled siRNA (Scr) as described earlier (Jiang et al., 2003) for 60 hrs, then serum starved overnight. Cells were then treated with or without insulin (1 nM and 100 nM) for 30 min for the glucose uptake assay, or 15 min for immunoblotting of CDP138, pAkt, Akt and β-actin. Glucose transport data are presented as mean±SD of 4 independent experiments. *P<0.05 vs Scr Insulin (1 nM) group; **P<0.01 vs Scr Insulin (100 nM) group. (B): Day 5 adipocytes were transfected with siRNAs and myc-GLUT4-GFP for 60 hrs and then serum starved overnight. Cells were then treated with insulin (1 nM) for 20 min. Cell surface Myc-GLUT4-GFP was detected with anti-myc monoclonal Ab (9E10) and Alexa Fluor 568-labeled goat anti-mouse IgG in non-permeablized cells. The Myc signal and GFP signal were quantified as previously described (Jiang et al., 2002). Data presented are representative microscopic images and mean±SD of about 160 GFP-positive cells in each group from three independent experiments. **P<0.01 vs Scr Insulin (1 nM) group. […] GLUT4 was detected with a goat anti-GLUT4 Ab and Alexa Fluor 488-conjugated donkey anti-goat Ab in permeabilized cells. Top and middle panels show 100 nm TIRF zone and representative GLUT4 TIRFM images, respectively. Data are mean±SD of 3 independent experiments. **P<0.01 vs Scr Insulin groups.\nGLUT4 translocation detection with wide field fluorescence and TIRF microscopy: Both wide field and TIRF microscopy were used to detect myc-GLUT4-GFP translocation to the cell surface as previously described (Jiang et al., 2002) and herein.\nTo test the effect of RNAi-induced gene specific knockdown of CDP138 or overexpression of CDP138 mutants on GLUT4 translocation, siRNAs or CDP138 constructs were transfected into adipocytes together with myc-GLUT4-GFP by electroporation as previously described (Jiang et al, 2003). […] Cells were washed with cold PBS, fixed with 4% formaldehyde and immunostained. Briefly, for siRNA study, the cell surface Myc-GLUT4-GFP was visualized with mouse anti-Myc Ab (9E10) and AlexaFluoro568-labeled goat anti-mouse secondary Ab (Invitrogen) in PBS containing 1% FBS. After washing, the coverslip were mounted with Prolong antifade reagent (Invitrogen, Eugene Oreg.). Fluorescence microscopy was carried as described below. Then, images were acquired with wide field microscopy as described below. For the study with overexpressed HAtagged CDP138 constructs, the cell surface Myc-GLUT4-GFP was visualized with rabbit anti-Myc Ab (Cell signaling, Inc) and AlexaFluoro568-labeled goat anti-rabbit secondary Ab (InVitrogen) in PBS containing 1% FBS. Cells were further permeabilized with PSB containing 0.5% Tween-20, and HA-tagged protein was detected with a mouse anti-HA epitope primary Ab followed by AlexaFluoro-350-labelled goat anti-mouse IgG. Insulin-induced myc-GLUT4 accumulation (AlexaFluoro-568 signal) within the evanescence excitation field (100 nm from dorsal membrane) in transfected adipocytes was measured with a Nikon Eclipse-Ti microscope equipped with a CoolSNAP HQ2 camera and laser scanning TIRF capacity. Total GLUT4-GFP signals and […] Alexa Fluoro-350 signals were acquired with wide field imaging to identify double-transfected cells. The ratio of myc-GLUT4 signal in the TIRF zone to the total Epi-GFP signal in wide field was used as a measure of GLUT4 translocation to the cell surface.\nImage Analysis and Quantification: TIRF and wide field fluorescence microscopy were performed using a Nikon inverted microscope (Melville, N.Y.) with a cooled charge-coupled device camera. […]"}, "CHO-T cells": {"test_system": "CHO-T cells", "assay": "Cell division of CHO-T cells overexpressing HA-CDP138", "format": "cell-based", "text": "Large cells bodies with multiple nuclei were formed in HA-tagged CDP138 positive CHO-T cells.\nHA-CDP138 positive cell is 3-5 times bigger than HA-negative cells (FIG. 14)."}, "PC12 cells [1]": {"test_system": "PC12 cells", "assay": "Survival of differentiated PC12 neuronal cells under serum starvation", "format": "cell-based", "conditions": "for cell death / survival after 24 hours of starvation / cell death within 14 hours of starvation: transfected 24 h, NGF 24 h, serum starved", "description": "Cells were serum starved for 6 hours (6 H), 14 hours (14 H) or 24 hours (24 H) before counting the number of cells in two wells.\nCells were serum starved for 24 hours before counting the number of bid surviving differentiated neuronal cells in two wells.\nIn order to determine the affects of CDP138 of neuronal cell survival, PC12 cells were transfected with wild-type CDP138-WT vector, dominant negative mutant CDP138-5DA vector or an empty vector for 24 h followed by adding NGF (neuron growth factor) for 24 h. Then cells were serum starved for 6 hours, 14 hour, and 24 hour before counting cell number in 2 wells.\n(§1) In addition to counting the total number of cells that survived, the number of big surviving differentiated neuronal cells were also assessed following 24 hours of starvation. […] This was a 50% increase in the number of big differentiated cells."}, "PC12 cells [2]": {"test_system": "PC12 cells", "assay": "NGF-induced neurite outgrowth in PC12 cells", "format": "cell-based", "description": "FIG. 13, panels A and B, show the expression pattern of CDP138 in various tissues and the effects of overexpressed wild-type and mutant CDP138 in neuronal growth factor (NGF)-induced neurite outgrowth in PC12 cells. A: CDP138 is highly expressed in the brain and distributed in the neurite and synapse of neuronal cells. 30 μg of total protein was assayed for all tissues, except only 15 μg of total protein from brain tissue was assayed in the immunoblotting of panel A. Exemplary protein distribution of CDP138-mCherry in a PC12 cell is also shown. B: Overexpressed CDP138-WT enhances neurite growth, whereas the CDP138-5DA mutant had the opposite effect.\nas §1"}}, "note": "Numbering of substitutions follows the chain as printed.", "data": [{"molecule": "B1", "values": [{"measurement": "effect of overexpression on insulin-stimulated myc-GLUT4-GFP translocation (TIRF myc / Epi GFP)", "setting": "3T3-L1 adipocytes", "value": "did not significantly alter"}, {"measurement": "size of positive cells relative to HA-negative cells", "setting": "CHO-T cells", "value": "3-5 times"}, {"measurement": "positive cells with big multiple nuclei", "setting": "CHO-T cells; three different experiments", "value": "about 24.6%"}]}, {"molecule": "B2", "values": [{"measurement": "number of big differentiated neuronal cells per well", "setting": "PC12 cells [1]; 24 hours of starvation", "value": "did not form any"}, {"measurement": "cell death / survival after 24 hours of starvation", "setting": "PC12 cells [1]", "value": "the highest amount of cell death"}, {"measurement": "cell death within 14 hours of starvation", "setting": "PC12 cells [1]", "value": "significant cell death"}, {"measurement": "increase in cell body length (fold over cell body length, NGF-induced neurite outgrowth)", "setting": "PC12 cells [2]", "value": "approximately 1 fold"}]}, {"molecule": "B3", "values": [{"measurement": "increase in the number of big differentiated cells over empty vector", "setting": "PC12 cells [1]; 24 hours of starvation", "value": 50, "unit": "%"}, {"measurement": "number of big differentiated neuronal cells per well", "setting": "PC12 cells [1]; 24 hours of starvation", "value": "approximately 1650 per well"}, {"measurement": "cell death / survival after 24 hours of starvation", "setting": "PC12 cells [1]", "value": "continued to survive"}, {"measurement": "cell death within 14 hours of starvation", "setting": "PC12 cells [1]", "value": "no appreciable cell death"}, {"measurement": "increase in cell body length (fold over cell body length, NGF-induced neurite outgrowth)", "setting": "PC12 cells [2]", "value": "~4", "unit": "fold"}]}]}
